In the experiment the target is T1, β-1,3-glucanase (Hevea brasiliensis (endogenous in latex …, UniProt P52407 37-356)).
T1 construct: β-1,3-glucanase of the lutoids (B-serum) of Hevea brasiliensis latex; two bands of about 35.5 and 41 kDa, both recognised by anti-glucanase and identified as β-1,3-glucanase by MALDI TOF MS; The preparation holds two forms (35.5 and 41 kDa); source: purified from B-serum of rubber tree latex (0-65% (NH4)2SO4, CM Sepharose Fast Flow); also unpurified in B-serum
Put plainly: SPR; Biacore 3000, 25 °C; β-1,3-glucanase amine-coupled to a CM5 chip (5000 RU); analytes flowed in HBS-EP pH 7.4 at 30 μL/min; multi-cycle kinetics, 1:1 Langmuir fit; apparent constants. The settings on record: both partners purified. In general terms: Surface plasmon resonance follows binding to a sensor surface in real time, without labels.

T1 sequence (P52407 37-356): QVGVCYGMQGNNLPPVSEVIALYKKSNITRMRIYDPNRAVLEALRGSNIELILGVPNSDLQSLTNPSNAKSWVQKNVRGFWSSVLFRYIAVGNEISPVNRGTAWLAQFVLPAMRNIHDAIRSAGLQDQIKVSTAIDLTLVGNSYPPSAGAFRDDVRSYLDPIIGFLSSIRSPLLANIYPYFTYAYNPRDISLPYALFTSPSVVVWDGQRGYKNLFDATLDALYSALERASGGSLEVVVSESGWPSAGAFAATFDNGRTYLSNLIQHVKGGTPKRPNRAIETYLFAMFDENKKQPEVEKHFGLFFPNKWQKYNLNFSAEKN

B1: pro-hevein (natural protein, UniProt P02877 18-204, looked up)
chain: EQCGRQAGGKLCPNNLCCSQWGWCGSTDEYCSPDHNCQSNCKDSGEGVGGGSASNVLATYHLYNSQDHGWDLNAASAYCSTWDANKPYSWRSKYGWTAFCGPVGAHGQSSCGKCLSVTNTGTGAKTTVRIVDQCSNGGLDLDVNVFRQLDTDGKGYERGHITVNYQFVDCGDSFNPLFSVMKSSVIN
notes: source: purified from B-serum of rubber tree latex (Sephacryl S-200HR); also unpurified in B-serum
For the molecule B1, the Kd is 231 µM.

B2: hevein (natural protein, UniProt P02877 18-60, looked up)
chain: EQCGRQAGGKLCPNNLCCSQWGWCGSTDEYCSPDHNCQSNCKD
notes: hevein, the N-terminal part split from pro-hevein, Hevea brasiliensis; runs at 10 kDa in Tricine-SDS-PAGE; source: purified from B-serum of rubber tree latex (85-95% (NH4)2SO4, Sephacryl S-200HR); also unpurified in B-serum
On to B2, for which the Kd was 87.9 µM.

The values above are taken from publication PMC6322289, “The formation and accumulation of protein-networks by physical interactions in the rapid occlusion of laticifer cells in rubber tree undergoing successive mechanical wounding” (BMC Plant Biology, 2019).
